Some results are limits rather than exact numbers.

Data set [1] is described as follows: Hydrodynamic radius (Rh), dynamic light scattering. The class given is physicochemical. Particulars: Table 5.
Data set [2] can be described thus: Turbidity (OD at 490 nm) / aggregation in aqueous buffer (PBS). Type of data set: physicochemical. The settings on record: turbidity (OD at 490 nm) >0.05 indicates aggregating. The text has this: Soluble: Capable of becoming molecularly or ionically dispersed in a solvent to form a homogeneous solution. […] Solubility can be determined by visual inspection, by turbidity measurements or by dynamic light scattering.
It was unknown a priori what composition and magnitude of charge would be needed to fully solubilize polymer arms with high densities of amphiphilic or hydrophobic drug (D) molecules. Therefore, we attached high densities (˜10 mol %) of the small molecule aromatic heterocycle, 2BXy, which is a TLR-7/8a, to ˜40 kDa HPMA-based polymer arms (A) through a reactive monomer (E), wherein the polymer arm (A) comprised HPMA monomers as the majority hydrophilic monomer (B) and optionally included either 10 or 20 mol % charged monomers (C) comprising either negatively or positively charged functional groups.

For “N3-poly(HPMA-co-Ma-b-Ala-2BXy)-Pg [Compound 46]”, the “Size, Rh (nm)” value in data set [1] is more than 1000 nm. Also, the “Turbidity, pH 7.4” value in data set [2] (Table 5, di-block architecture) is reported as “Aggregate”.
As for “N3-poly(HPMA-co-Ma-b-Ala-2BXy-co-Ma-b-Ala-COOH)-Pg [Compound 48]”, in data set [2] (Table 4, charged monomers, ~10 mol % TLR-7/8a), the “Turbidity, pH 7.4” value came out at 0.043.
For “N3-poly[(HPMA-co-Ma-b-Ala-2BXy)-b-HPMA]-Pg [Compound 62]”, the “Size, Rh (nm)” value in data set [1] stood at 6.6 nm. Further, the “Turbidity, pH 7.4” value in data set [2] (Table 5, di-block architecture) was determined as 0.039.
Consider “PAMAM-g-poly[(HPMA-co-Ma-b-Ala-2BXy)-b-HPMA]-Pg [Compound 78]”, for which the “Size, Rh (nm)” value in data set [1] came out at 12.9 nm. Moreover, the “Turbidity, pH 7.4” value in data set [2] (Table 5, di-block architecture) is listed as 0.041.

The values are drawn from patent US20230026627A1, “Compositions and Methods of Manufacturing Star Polymers for Ligand Display and/or Drug Delivery” (Vaccitech North America, Inc., priority 2019, published 2023).
